The labels stand for the following.
B1: anti-CD47 monoclonal antibody (mAb) (antibody, V domains shown)
VH: EVQLVQSGAEVKKPGSSVKVSCKASGYSFTHHWIHWVRQAPGQGLEWMGMIDASDSETRLSQKFKDRVTITADKSTSTAYMELSSLRSEDTAVYYCARLGRYYFDYWGQGTTVTVSS
VL: EIVLTQSPATLSLSPGERATLSCRASENVGTYISWYQQKPGQAPRLLIYGASNRYTGIPARFSGSGSGTDFTLTISSLEPEDFAVYYCGESYGHLYTFGGGTKVEIKR
B2: PDL1a-E-HN (bispecific antibody)
heavy: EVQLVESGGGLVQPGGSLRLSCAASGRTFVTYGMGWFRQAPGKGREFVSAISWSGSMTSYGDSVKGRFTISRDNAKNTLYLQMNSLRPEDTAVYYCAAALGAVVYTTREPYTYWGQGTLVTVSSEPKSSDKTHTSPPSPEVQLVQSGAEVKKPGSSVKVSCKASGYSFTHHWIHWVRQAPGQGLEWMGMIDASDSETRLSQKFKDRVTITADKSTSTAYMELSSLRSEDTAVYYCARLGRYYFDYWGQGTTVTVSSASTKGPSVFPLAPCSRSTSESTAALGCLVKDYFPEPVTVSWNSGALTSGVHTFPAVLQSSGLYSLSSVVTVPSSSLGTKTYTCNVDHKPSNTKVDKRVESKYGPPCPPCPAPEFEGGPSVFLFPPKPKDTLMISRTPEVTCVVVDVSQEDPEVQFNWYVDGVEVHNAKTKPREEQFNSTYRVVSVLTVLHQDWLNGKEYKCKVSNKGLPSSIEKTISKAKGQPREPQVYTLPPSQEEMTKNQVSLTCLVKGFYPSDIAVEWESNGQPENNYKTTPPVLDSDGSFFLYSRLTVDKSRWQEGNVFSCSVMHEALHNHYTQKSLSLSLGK
light: EIVLTQSPATLSLSPGERATLSCRASENVGTYISWYQQKPGQAPRLLIYGASNRYTGIPARFSGSGSGTDFTLTISSLEPEDFAVYYCGESYGHLYTFGGGTKVEIKRTVAAPSVFIFPPSDEQLKSGTASVVCLLNNFYPREAKVQWKVDNALQSGNSQESVTEQDSKDSTYSLSSTLTLSKADYEKHKVYACEVTHQGLSSPVTKSFNRGEC
B3: PDL1a-G15-HN (bispecific antibody)
heavy: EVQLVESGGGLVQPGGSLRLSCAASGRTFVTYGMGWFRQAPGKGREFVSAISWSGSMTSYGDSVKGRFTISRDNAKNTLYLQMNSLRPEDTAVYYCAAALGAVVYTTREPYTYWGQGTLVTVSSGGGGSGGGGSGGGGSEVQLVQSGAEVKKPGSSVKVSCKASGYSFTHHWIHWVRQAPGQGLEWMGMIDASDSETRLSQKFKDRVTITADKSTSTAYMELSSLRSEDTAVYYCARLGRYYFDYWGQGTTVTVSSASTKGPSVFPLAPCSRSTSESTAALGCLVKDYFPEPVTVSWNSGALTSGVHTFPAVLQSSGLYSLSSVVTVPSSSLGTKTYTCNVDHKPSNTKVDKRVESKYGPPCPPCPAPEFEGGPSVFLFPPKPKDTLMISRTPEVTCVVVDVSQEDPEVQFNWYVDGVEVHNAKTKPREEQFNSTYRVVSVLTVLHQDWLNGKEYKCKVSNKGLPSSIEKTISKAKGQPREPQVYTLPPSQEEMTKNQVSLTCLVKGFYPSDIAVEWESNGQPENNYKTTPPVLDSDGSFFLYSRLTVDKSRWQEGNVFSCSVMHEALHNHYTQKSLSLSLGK
light: EIVLTQSPATLSLSPGERATLSCRASENVGTYISWYQQKPGQAPRLLIYGASNRYTGIPARFSGSGSGTDFTLTISSLEPEDFAVYYCGESYGHLYTFGGGTKVEIKRTVAAPSVFIFPPSDEQLKSGTASVVCLLNNFYPREAKVQWKVDNALQSGNSQESVTEQDSKDSTYSLSSTLTLSKADYEKHKVYACEVTHQGLSSPVTKSFNRGEC
B4: PDL1c-E-HC (bispecific antibody)
heavy: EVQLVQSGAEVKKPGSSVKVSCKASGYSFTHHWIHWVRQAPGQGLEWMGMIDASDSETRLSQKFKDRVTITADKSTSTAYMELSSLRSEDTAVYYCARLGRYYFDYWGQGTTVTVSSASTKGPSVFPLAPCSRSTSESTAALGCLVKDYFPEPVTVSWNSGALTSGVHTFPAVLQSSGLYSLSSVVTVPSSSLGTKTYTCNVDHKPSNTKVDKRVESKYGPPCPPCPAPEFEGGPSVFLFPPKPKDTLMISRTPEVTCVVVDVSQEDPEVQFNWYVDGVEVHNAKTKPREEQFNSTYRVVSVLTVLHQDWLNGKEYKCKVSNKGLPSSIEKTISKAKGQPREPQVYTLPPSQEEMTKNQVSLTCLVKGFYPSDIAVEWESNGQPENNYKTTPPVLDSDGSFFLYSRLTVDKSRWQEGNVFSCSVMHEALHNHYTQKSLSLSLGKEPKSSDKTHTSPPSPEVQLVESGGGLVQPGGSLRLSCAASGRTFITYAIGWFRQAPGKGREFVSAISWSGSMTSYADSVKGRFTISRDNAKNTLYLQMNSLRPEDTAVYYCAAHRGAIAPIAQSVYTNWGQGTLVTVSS
light: EIVLTQSPATLSLSPGERATLSCRASENVGTYISWYQQKPGQAPRLLIYGASNRYTGIPARFSGSGSGTDFTLTISSLEPEDFAVYYCGESYGHLYTFGGGTKVEIKRTVAAPSVFIFPPSDEQLKSGTASVVCLLNNFYPREAKVQWKVDNALQSGNSQESVTEQDSKDSTYSLSSTLTLSKADYEKHKVYACEVTHQGLSSPVTKSFNRGEC
B5: PDL1a-E-HC (bispecific antibody)
heavy: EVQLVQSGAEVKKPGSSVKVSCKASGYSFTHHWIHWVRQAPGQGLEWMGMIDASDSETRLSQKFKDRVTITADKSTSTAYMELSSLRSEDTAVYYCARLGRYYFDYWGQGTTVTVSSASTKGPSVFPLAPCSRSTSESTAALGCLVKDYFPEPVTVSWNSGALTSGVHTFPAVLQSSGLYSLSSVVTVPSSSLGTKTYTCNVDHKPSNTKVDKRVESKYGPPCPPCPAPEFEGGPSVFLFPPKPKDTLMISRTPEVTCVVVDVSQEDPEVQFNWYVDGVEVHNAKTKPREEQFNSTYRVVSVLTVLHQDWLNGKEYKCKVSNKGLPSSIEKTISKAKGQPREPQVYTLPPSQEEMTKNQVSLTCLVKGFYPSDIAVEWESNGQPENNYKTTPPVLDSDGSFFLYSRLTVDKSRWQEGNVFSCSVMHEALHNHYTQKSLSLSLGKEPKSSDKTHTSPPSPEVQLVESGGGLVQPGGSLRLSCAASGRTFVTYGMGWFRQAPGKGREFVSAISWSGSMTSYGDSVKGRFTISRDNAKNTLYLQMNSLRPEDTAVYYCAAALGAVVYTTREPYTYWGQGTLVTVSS
light: EIVLTQSPATLSLSPGERATLSCRASENVGTYISWYQQKPGQAPRLLIYGASNRYTGIPARFSGSGSGTDFTLTISSLEPEDFAVYYCGESYGHLYTFGGGTKVEIKRTVAAPSVFIFPPSDEQLKSGTASVVCLLNNFYPREAKVQWKVDNALQSGNSQESVTEQDSKDSTYSLSSTLTLSKADYEKHKVYACEVTHQGLSSPVTKSFNRGEC
B6: PDL1b-E-HN (bispecific antibody)
heavy: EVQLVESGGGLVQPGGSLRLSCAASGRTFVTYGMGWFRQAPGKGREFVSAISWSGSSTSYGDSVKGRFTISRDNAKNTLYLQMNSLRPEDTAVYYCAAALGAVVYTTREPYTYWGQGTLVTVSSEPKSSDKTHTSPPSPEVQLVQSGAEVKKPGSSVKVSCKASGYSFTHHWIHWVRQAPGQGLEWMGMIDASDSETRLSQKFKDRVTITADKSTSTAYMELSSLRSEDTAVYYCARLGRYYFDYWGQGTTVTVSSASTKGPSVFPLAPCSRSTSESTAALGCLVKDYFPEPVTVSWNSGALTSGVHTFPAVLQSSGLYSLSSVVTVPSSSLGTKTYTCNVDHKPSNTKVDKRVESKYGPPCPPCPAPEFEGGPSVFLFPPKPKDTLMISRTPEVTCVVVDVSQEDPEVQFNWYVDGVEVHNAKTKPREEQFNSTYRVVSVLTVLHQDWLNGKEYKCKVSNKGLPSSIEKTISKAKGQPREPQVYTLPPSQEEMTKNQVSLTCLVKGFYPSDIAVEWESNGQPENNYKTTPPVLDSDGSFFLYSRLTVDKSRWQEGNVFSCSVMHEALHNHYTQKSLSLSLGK
light: EIVLTQSPATLSLSPGERATLSCRASENVGTYISWYQQKPGQAPRLLIYGASNRYTGIPARFSGSGSGTDFTLTISSLEPEDFAVYYCGESYGHLYTFGGGTKVEIKRTVAAPSVFIFPPSDEQLKSGTASVVCLLNNFYPREAKVQWKVDNALQSGNSQESVTEQDSKDSTYSLSSTLTLSKADYEKHKVYACEVTHQGLSSPVTKSFNRGEC
B7: PDL1b-E-HC (bispecific antibody)
heavy: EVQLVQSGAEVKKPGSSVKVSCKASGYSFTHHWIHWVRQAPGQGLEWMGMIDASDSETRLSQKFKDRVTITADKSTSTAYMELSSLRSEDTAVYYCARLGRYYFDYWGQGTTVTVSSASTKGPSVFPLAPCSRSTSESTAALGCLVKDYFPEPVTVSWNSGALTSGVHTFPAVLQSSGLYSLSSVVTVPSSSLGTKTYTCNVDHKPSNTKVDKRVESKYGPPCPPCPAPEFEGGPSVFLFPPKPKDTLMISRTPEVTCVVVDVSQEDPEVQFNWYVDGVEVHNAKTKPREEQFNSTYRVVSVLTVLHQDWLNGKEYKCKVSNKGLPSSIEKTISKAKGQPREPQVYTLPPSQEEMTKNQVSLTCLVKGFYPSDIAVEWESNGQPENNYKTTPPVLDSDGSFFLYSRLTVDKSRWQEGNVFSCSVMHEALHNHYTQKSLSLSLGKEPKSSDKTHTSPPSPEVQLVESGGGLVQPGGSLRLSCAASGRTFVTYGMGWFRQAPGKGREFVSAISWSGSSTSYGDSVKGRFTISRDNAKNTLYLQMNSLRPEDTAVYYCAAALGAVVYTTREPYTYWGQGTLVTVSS
light: EIVLTQSPATLSLSPGERATLSCRASENVGTYISWYQQKPGQAPRLLIYGASNRYTGIPARFSGSGSGTDFTLTISSLEPEDFAVYYCGESYGHLYTFGGGTKVEIKRTVAAPSVFIFPPSDEQLKSGTASVVCLLNNFYPREAKVQWKVDNALQSGNSQESVTEQDSKDSTYSLSSTLTLSKADYEKHKVYACEVTHQGLSSPVTKSFNRGEC
B8: PDL1a-G15-HC (bispecific antibody)
heavy: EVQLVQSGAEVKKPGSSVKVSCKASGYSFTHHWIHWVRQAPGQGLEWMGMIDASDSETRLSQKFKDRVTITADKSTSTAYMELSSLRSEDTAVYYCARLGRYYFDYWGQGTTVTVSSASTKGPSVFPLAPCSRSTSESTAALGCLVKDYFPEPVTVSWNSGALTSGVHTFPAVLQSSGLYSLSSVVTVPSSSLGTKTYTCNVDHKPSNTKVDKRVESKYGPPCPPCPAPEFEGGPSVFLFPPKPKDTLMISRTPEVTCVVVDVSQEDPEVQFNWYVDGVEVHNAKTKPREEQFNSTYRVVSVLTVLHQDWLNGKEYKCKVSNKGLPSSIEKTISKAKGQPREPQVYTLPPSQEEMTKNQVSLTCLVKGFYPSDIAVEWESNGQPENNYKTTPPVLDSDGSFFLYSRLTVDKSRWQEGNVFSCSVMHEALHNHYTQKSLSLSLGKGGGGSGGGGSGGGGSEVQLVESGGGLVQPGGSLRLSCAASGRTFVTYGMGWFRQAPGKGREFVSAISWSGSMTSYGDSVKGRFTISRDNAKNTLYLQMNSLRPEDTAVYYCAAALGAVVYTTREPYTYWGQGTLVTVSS
light: EIVLTQSPATLSLSPGERATLSCRASENVGTYISWYQQKPGQAPRLLIYGASNRYTGIPARFSGSGSGTDFTLTISSLEPEDFAVYYCGESYGHLYTFGGGTKVEIKRTVAAPSVFIFPPSDEQLKSGTASVVCLLNNFYPREAKVQWKVDNALQSGNSQESVTEQDSKDSTYSLSSTLTLSKADYEKHKVYACEVTHQGLSSPVTKSFNRGEC
B9: PDL1c-E-HN (bispecific antibody)
heavy: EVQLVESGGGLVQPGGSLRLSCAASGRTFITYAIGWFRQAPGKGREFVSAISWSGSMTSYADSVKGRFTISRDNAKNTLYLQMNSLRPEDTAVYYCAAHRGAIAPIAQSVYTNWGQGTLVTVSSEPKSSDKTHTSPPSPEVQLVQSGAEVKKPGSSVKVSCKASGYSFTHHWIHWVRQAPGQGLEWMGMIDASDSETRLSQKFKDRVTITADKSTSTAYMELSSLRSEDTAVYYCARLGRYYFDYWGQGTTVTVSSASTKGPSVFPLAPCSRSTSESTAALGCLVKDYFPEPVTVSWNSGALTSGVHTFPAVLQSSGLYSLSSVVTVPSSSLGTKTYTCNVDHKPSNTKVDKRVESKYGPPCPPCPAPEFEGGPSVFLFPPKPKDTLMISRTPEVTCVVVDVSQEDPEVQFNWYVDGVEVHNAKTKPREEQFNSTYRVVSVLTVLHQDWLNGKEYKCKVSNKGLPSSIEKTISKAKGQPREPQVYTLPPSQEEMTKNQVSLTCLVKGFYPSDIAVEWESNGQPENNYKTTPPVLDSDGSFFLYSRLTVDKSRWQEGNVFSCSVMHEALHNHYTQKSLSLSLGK
light: EIVLTQSPATLSLSPGERATLSCRASENVGTYISWYQQKPGQAPRLLIYGASNRYTGIPARFSGSGSGTDFTLTISSLEPEDFAVYYCGESYGHLYTFGGGTKVEIKRTVAAPSVFIFPPSDEQLKSGTASVVCLLNNFYPREAKVQWKVDNALQSGNSQESVTEQDSKDSTYSLSSTLTLSKADYEKHKVYACEVTHQGLSSPVTKSFNRGEC
B10: PDL1c-E-LN (bispecific antibody)
heavy: not shown
light: EVQLVESGGGLVQPGGSLRLSCAASGRTFITYAIGWFRQAPGKGREFVSAISWSGSMTSYADSVKGRFTISRDNAKNTLYLQMNSLRPEDTAVYYCAAHRGAIAPIAQSVYTNWGQGTLVTVSSEPKSSDKTHTSPPSPEIVLTQSPATLSLSPGERATLSCRASENVGTYISWYQQKPGQAPRLLIYGASNRYTGIPARFSGSGSGTDFTLTISSLEPEDFAVYYCGESYGHLYTFGGGTKVEIKRTVAAPSVFIFPPSDEQLKSGTASVVCLLNNFYPREAKVQWKVDNALQSGNSQESVTEQDSKDSTYSLSSTLTLSKADYEKHKVYACEVTHQGLSSPVTKSFNRGEC
B11: PDL1a-E-LN (bispecific antibody)
heavy: not shown
light: EVQLVESGGGLVQPGGSLRLSCAASGRTFVTYGMGWFRQAPGKGREFVSAISWSGSMTSYGDSVKGRFTISRDNAKNTLYLQMNSLRPEDTAVYYCAAALGAVVYTTREPYTYWGQGTLVTVSSEPKSSDKTHTSPPSPEIVLTQSPATLSLSPGERATLSCRASENVGTYISWYQQKPGQAPRLLIYGASNRYTGIPARFSGSGSGTDFTLTISSLEPEDFAVYYCGESYGHLYTFGGGTKVEIKRTVAAPSVFIFPPSDEQLKSGTASVVCLLNNFYPREAKVQWKVDNALQSGNSQESVTEQDSKDSTYSLSSTLTLSKADYEKHKVYACEVTHQGLSSPVTKSFNRGEC
B12: PDL1b-E-LN (bispecific antibody)
heavy: not shown
light: EVQLVESGGGLVQPGGSLRLSCAASGRTFVTYGMGWFRQAPGKGREFVSAISWSGSSTSYGDSVKGRFTISRDNAKNTLYLQMNSLRPEDTAVYYCAAALGAVVYTTREPYTYWGQGTLVTVSSEPKSSDKTHTSPPSPEIVLTQSPATLSLSPGERATLSCRASENVGTYISWYQQKPGQAPRLLIYGASNRYTGIPARFSGSGSGTDFTLTISSLEPEDFAVYYCGESYGHLYTFGGGTKVEIKRTVAAPSVFIFPPSDEQLKSGTASVVCLLNNFYPREAKVQWKVDNALQSGNSQESVTEQDSKDSTYSLSSTLTLSKADYEKHKVYACEVTHQGLSSPVTKSFNRGEC
B13: PDL1a-G15-LN (bispecific antibody)
heavy: not shown
light: EVQLVESGGGLVQPGGSLRLSCAASGRTFVTYGMGWFRQAPGKGREFVSAISWSGSMTSYGDSVKGRFTISRDNAKNTLYLQMNSLRPEDTAVYYCAAALGAVVYTTREPYTYWGQGTLVTVSSGGGGSGGGGSGGGGSEIVLTQSPATLSLSPGERATLSCRASENVGTYISWYQQKPGQAPRLLIYGASNRYTGIPARFSGSGSGTDFTLTISSLEPEDFAVYYCGESYGHLYTFGGGTKVEIKRTVAAPSVFIFPPSDEQLKSGTASVVCLLNNFYPREAKVQWKVDNALQSGNSQESVTEQDSKDSTYSLSSTLTLSKADYEKHKVYACEVTHQGLSSPVTKSFNRGEC

Sequence of PD-L1 expressed on CHO-K1 cells (Q9NZQ7 19-290): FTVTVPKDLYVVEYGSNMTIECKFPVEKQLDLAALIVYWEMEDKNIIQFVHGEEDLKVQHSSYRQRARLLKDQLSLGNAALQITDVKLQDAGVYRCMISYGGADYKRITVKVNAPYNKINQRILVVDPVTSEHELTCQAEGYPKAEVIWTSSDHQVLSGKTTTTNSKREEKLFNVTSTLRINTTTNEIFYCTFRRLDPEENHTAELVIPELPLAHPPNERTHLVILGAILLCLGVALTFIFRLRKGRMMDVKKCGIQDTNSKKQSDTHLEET

In the first assay the target is CD47 expressed on CHO-K1 cells (UniProt Q08722 19-323). In words: FACS. Background: In flow cytometry, cells or beads pass a laser one at a time.
With B1, the concentration giving a half-maximal response (EC50) amounted to 0.325 nM.

B2 came in with an EC50 of 0.854 nM. B3 displayed an EC50 of 0.664 nM. This EC50 and that of the molecule before are within 1.5-fold of each other.

The molecule B4 had a concentration giving a half-maximal response (EC50) of 0.287 nM. This EC50 lies about 2.3-fold lower than the previous one.

B5: the concentration giving a half-maximal response (EC50) was determined as 0.255 nM. The molecule B6 came in with an EC50 of 0.521 nM.

For B7, the EC50 amounted to 0.328 nM.

Molecule B8 had a concentration giving a half-maximal response (EC50) of 0.247 nM.

With B9, the concentration giving a half-maximal response (EC50) turned out to be 0.7 nM.

A further assay has as its target PD-L1 expressed on CHO-K1 cells (UniProt Q9NZQ7 19-290). In words: FACS binding, CHO-K1 cells expressing PD-L1.
As to B10, the response was half-maximal at 0.718 nM (EC50). Same read-out and setting: the same measure for B11: 0.351 nM; for B12: 1.18 nM; for B13: 1.11 nM. With B2, the response was half-maximal at 0.759 nM (EC50). In turn, B9 showed a concentration for a half-maximal effect (EC50) of 1.48 nM.

The EC50 is the concentration giving half of the maximal effect.
